Test results reported in patent US9260501B2, “Peptide extended insulins” (priority 2006, dated 2016).

How the values were obtained:
[1] = target: purified recombinant human insulin receptor - (minus) exon 11 (human) (UniProt P06213); test: SPA antibody-capture competition assay, displacement of A14 Tyr[125I]-human insulin from recombinant human insulin receptor minus exon 11; affinity relative to human insulin
[2] = target: human insulin receptor (Homo sapiens, UniProt P06213); test: Insulin receptor binding, SPA (Scintillation Proximity Assay) microtiterplate antibody capture assay; details: binding affinity relative to that of human insulin; purified recombinant human insulin receptor minus exon 11; A14 Tyr[125I]-human insulin tracer
Sequence of human insulin receptor (P06213 28-746 isoform P06213-2 limits assumed): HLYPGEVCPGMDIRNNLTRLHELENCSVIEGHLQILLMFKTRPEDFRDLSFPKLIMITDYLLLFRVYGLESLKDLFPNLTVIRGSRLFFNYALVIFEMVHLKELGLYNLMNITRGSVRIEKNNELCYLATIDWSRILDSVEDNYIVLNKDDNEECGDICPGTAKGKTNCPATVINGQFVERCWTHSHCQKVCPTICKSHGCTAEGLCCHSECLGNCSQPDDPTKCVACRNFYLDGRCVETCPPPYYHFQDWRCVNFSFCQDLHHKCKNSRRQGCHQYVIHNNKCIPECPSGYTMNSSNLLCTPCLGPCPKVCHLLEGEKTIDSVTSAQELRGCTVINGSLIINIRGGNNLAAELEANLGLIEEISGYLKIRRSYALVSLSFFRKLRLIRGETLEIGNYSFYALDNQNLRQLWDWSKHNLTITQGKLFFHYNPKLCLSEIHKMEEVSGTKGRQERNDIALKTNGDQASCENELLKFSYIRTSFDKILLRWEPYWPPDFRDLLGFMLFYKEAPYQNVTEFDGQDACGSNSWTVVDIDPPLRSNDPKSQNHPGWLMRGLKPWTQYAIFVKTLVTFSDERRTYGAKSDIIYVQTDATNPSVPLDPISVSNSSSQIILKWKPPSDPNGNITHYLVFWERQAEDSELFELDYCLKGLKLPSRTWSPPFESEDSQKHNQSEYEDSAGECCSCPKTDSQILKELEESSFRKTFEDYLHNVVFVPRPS
Sequence of human insulin receptor (P06213 763-1382 partner limits assumed): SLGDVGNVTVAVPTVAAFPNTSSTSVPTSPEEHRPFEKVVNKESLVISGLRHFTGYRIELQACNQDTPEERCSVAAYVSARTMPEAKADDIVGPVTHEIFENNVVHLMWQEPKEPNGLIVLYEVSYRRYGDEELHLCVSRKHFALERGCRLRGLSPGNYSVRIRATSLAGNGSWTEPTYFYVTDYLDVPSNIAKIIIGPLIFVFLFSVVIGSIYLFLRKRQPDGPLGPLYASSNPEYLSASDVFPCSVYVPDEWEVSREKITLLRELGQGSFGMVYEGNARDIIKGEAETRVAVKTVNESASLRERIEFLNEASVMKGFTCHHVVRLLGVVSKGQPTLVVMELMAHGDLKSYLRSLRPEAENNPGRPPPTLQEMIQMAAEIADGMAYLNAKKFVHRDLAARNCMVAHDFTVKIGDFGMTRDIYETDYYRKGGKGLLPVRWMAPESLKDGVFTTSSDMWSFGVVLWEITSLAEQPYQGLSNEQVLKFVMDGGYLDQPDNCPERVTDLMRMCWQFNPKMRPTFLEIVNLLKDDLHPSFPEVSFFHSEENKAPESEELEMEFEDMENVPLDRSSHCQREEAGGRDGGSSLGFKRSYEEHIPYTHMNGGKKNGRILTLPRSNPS
Protocol: These extended insulins were tested for biological insulin activity as measured by binding affinity to the human insulin receptor relative to that of human insulin as described below.
Insulin Receptor Binding of the Insulins of the Invention
The affinity of the insulins of the invention for the human insulin receptor can be determined by a SPA assay (Scintillation Proximity Assay) microtiterplate antibody capture assay. […] Reagent mix for a single Packard Optiplate (Packard No. 6005190) is composed of 2.4 μl of a 1:5000 diluted purified recombinant human insulin receptor − (minus) exon 11, an amount of a stock solution of A14 Tyr[125I]-human insulin corresponding to 5000 cpm per 100 μl of reagent mix, 12 μl of a 1:1000 dilution of F12 antibody, 3 ml of SPA-beads and binding buffer to a total of 12 ml. A total of 100 μl is then added and a dilution series is made from appropriate samples. To the dilution series is then added 100 μl of reagent mix and the samples are incubated for 16 hours while gently shaken. The phases are then separated by centrifugation for 1 min and the plates counted in a Top-counter. The binding data are fitted using the nonlinear regression algorithm in the GraphPad Prism 2.01 (GraphPad Software, San Diego, Calif.).

Substance | Relative insulin receptor binding [1] [%] | Relative insulin receptor binding [2] [%]
A14E, A21Q, A22-A45G, B25H, desB30 Human Insulin (from UniProt P01308) (ligand) | 12 | –
A14E, A21Q, A22-A45G, B(-6)-(-1)G, B25H, desB30 Human Insulin (from UniProt P01308) (ligand) | 10 | –
A14E, A21Q, A22-A45G, B(-12)-(-1)G, B25H, desB30 Human Insulin (from UniProt P01308) (ligand) | 11 | –
A14E, A21Q, A22-A45G, B(-18)-(-1)G, B25H, desB30 Human Insulin (from UniProt P01308) (ligand) | 7.2 | –
A14E, A21Q, A22-A57G, B25H, desB30 Human Insulin (from UniProt P01308) (ligand) | 14 | –
A14E, A21Q, A22-A62G, B25H, desB30 Human Insulin (from UniProt P01308) (ligand) | 2 | –
A14E, A21Q, A22-A62G, B25H, desB30 Human Insulin [Example 20] | – | 2
A14E, A21Q, A22G-A51G, B25H, desB30 Human Insulin (from UniProt P01308) (ligand) | 12 | –
A21Q, A22-A45G, B(-6)-(-1G), desB30 Human Insulin (from UniProt P01308) (ligand) | 14 | –
A21Q, A22-A45G, B(-12)-(-1)G, desB30 Human Insulin (from UniProt P01308) (ligand) | 16 | –
A21Q, A22-A45G, B(-18)-(-1)G, desB30 Human Insulin (from UniProt P01308) (ligand) | 13 | –
A21Q, A22-A45G, desB30 Human Insulin (from UniProt P01308) (ligand) | 14 | –
A21Q, A22-A51G, desB30 Human Insulin (from UniProt P01308) (ligand) | 17 | –
A21Q, A22-A57G, desB30 Human Insulin (from UniProt P01308) (ligand) | 20 | –
A22-27G desB30 Human Insulin (from UniProt P01308) (ligand) | 44 | –
A22-33G desB30 Human Insulin (from UniProt P01308) (ligand) | 41 | –
A22-39G desB30 Human Insulin (from UniProt P01308) (ligand) | 30 | –
A22-45G desB30 Human Insulin (from UniProt P01308) (ligand) | 25 | –
